Measured values published in patent US20230331823A1 (HENRY M JACKSON FOUNDATION FOR THE ADVANCEMENT OF MILITARY …, published 2023).
Residue numbers refer to the chain shown, from its start.

B1: MoB3-3D8_Fc chimera antibody (Fc fusion)
chain: ARVDQTPQTITKETGESLTINCVLRDSNCALASTDWYRKKSGSTNEESISKGGRYVETVNSGSKSFSLRINDLTVEDSGTYRCNAWDSWETRQLKCDYDVYGGGTVVTVN
B2: ShAb01H06K (ShAb01Hole-06Knob) (bispecific antibody, V domains shown)
V domain 1: ARVDQTPRSVTKETGESLTINCVLRDSNCALSSTHWYRKKSGSTNEERILQGRRYVETVNSGSKSFSLRINDLRVEDSGTYRCKVYWGNSWQDKFCPGLGSYEYGDGTAVTVNS
V domain 2: ARVDQTPRSVTKETGESLTINCVLRDASYALGSTCWYRKKSGSTNEESISKGGRYVETVNSGSKSFSLRINDLTVEDGGTYRCGVGRGLGVGCDYPLCSYSYAACGDGTAVTVNS
B3: ShAb06H02K (ShAb06Hole-02Knob) (bispecific antibody, V domains shown)
V domain 1: B2 V domain 2
V domain 2: ARVDQTPQTITKETGESLTINCVLRDSNCALASTDWYRKKSGSTNEESISKGGRYVETVNSGSKSFSLRINDLTVEDSGTYRCNAWDSWETRQLKCDYDVYGGGTVVTVNS
B4: ShAb01-Foldon (ShAb01 VNAR-KESlinker-Foldon-3c-His8-Strep) (VNAR)
VNAR: B2 V domain 1 with S114K
B5: ShAb02-Foldon (ShAb02 VNAR-KESlinker-Foldon-3c-His8-Strep) (VNAR)
VNAR: B3 V domain 2 with S111K

Biological target: Spike Ferritin nanoparticle SpFN_pCoV1B-06-PL (PrefLead-S2P.1158op1-del-Ferritin) (SARS-CoV-2 Spike ectodomain fused to …)
Assay: BLI, Fc fusion on AHC probe, SpFN_pCoV1B-06-PL in solution

Binder | binding result
B1 | binds

Biological target: T1, SARS-CoV-2 Beta (B.1.351) Spike on pseudovirions (SARS-CoV-2)
Assay: cell-based or functional assay

Binder | pseudovirus neutralization IC50 [µg/mL] | pseudovirus neutralization IC80 [µg/mL]
B2 | 1.28 | 6.17
B3 | 0.18 | 0.424
B4 | 0.075 | 0.164
B5 | 0.397 | 1.8

Biological target: T2, SARS-CoV-2 Alpha (B.1.1.7) Spike on pseudovirions (SARS-CoV-2)
Assay: cell-based or functional assay

Binder | pseudovirus neutralization IC50 [µg/mL] | pseudovirus neutralization IC80 [µg/mL]
B2 | 1.37 | 2.65
B3 | 0.109 | 0.225
B4 | 0.119 | 0.328
B5 | 0.035 | 0.104

Biological target: T1, SARS-CoV-2 Beta (B.1.351) Spike on …
Assay: cell-based or functional assay
Remark: another data set of the same source

Binder | pseudovirus neutralization IC50 [µg/mL]
B4 | 0.07
B5 | 0.02

Biological target: T2, SARS-CoV-2 Alpha (B.1.1.7) Spike on …
Assay: cell-based or functional assay
Remark: another data set of the same source

Binder | pseudovirus neutralization IC50 [µg/mL]
B4 | 0.12
B5 | 0.04
